Kd data for one substance are collected here from PMC8376252.

Experiment in all cases: BLI; Octet RED; antibody (IgG, 10 µg/mL) immobilised on anti-human IgG Fc capture biosensors; antigen as analyte, six twofold dilutions from 2 µM (gp120 monomers) or 500 nM (BG505.SOSIP.664 trimer); 1X PBS, 0.1% BSA, 0.005% Tween-20, 0.02% sodium azide; 23°C; association 180 s, dissociation 180 s; double reference subtraction; global 1:1 fit
In general terms: Biolayer interferometry detects binding as a change in optical thickness at a sensor tip.

In test [1] the target is ∆CDR1VH heavy chain chimera paired with the mature light chain (human).
In test [2] the target is mature heavy chain paired with Int5∆FWR2-FWR3VL (human).
Test [3] concerns the target mature heavy chain paired with the inferred naive light chain (matVH 0VL) (human).

Chain of ∆CDR1VH heavy chain chimera paired with the mature light chain (human) (light, as listed by the source): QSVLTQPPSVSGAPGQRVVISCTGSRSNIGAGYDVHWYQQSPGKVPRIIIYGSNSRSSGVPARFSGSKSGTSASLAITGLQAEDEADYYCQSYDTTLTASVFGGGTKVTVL
Chain of mature heavy chain paired with the inferred naive light chain (matVH 0VL) (human) (heavy, as listed by the source): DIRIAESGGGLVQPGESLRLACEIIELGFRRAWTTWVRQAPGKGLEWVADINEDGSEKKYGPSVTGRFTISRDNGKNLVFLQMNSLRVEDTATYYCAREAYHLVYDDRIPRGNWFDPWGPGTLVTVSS
Chain of mature heavy chain paired with Int5∆FWR2-FWR3VL (human) (heavy, as listed by the source): as above

By Kd is commonly meant a measure of binding affinity in units of concentration. On to “BG505.SOSIP.664 trimer (from UniProt Q2N0S6 1-860; Q2N0S6 1-860) (complex)”, for which the Kd was determined as 40.6 nM in test [1], 1300 nM in test [2] and 89.6 nM in test [3].
